Experimental data as given in paper PMC5688999 (RNA, 2017).
One block for each binder: values may come before it. No end group written: not given here.

Columns and labels:
[1] = molecular target: T1, GST-tagged yeast Mtr4 short arch (GST-Mtr4^SA, residues 638–842), wild type (S. cerevisiae, UniProt P47047 638-842); test: pull-down
T1 sequence (looked up): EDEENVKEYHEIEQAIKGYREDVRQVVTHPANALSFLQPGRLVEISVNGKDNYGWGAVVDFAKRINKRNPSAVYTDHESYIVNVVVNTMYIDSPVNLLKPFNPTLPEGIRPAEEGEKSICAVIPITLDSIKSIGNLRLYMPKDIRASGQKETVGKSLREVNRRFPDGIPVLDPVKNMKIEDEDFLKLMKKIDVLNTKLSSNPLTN

[2] = molecular target: T2, Mtr4-ΔN (helicase region of Mtr4, residues 81–1073) (S. cerevisiae, UniProt P47047 81-1073); test: ITC
T2 sequence (looked up): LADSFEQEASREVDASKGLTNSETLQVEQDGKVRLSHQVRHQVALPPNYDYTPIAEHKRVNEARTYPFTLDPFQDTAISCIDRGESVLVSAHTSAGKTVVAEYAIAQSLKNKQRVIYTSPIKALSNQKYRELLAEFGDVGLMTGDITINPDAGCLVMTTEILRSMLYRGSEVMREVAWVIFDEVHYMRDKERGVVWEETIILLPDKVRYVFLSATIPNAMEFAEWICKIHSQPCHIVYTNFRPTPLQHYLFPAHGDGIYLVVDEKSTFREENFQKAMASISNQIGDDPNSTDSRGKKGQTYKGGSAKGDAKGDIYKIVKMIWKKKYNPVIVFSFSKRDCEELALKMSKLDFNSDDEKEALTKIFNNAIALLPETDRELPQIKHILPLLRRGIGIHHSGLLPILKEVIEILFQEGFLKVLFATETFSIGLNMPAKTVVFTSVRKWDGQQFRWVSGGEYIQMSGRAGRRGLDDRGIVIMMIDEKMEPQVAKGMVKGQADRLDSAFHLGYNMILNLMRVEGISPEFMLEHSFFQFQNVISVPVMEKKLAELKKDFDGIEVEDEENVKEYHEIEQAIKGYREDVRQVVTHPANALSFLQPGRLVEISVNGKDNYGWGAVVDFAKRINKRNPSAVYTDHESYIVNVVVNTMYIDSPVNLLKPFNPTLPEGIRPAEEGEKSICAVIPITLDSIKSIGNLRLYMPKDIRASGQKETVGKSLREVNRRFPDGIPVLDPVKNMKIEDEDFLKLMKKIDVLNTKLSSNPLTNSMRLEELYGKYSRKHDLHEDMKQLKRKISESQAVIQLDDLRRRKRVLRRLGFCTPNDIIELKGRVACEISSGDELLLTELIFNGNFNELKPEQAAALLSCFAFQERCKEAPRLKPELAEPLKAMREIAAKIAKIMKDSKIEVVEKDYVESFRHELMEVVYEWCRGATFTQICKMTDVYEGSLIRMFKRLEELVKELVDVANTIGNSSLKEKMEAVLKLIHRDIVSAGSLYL

- binding result [1]: binds
B1: Z-tagged Nop53 (residues 48–99) (domain or fragment, S. cerevisiae, UniProt Q12080 48-99, looked up)
chain: GTSDITSLQNDALFHVDVEGDEILKNKLIKRKQIKKVLKSKEILDAVKTNSK
modifications: also: Z-tagged

- Kd [2]: ~18 µM
Binder: DALFHVDVEGDEILKNKLIKRKQIKKVLKSKEIL (domain or fragment, S. cerevisiae, UniProt Q12080 58-91, looked up) [Nop53_(prot) (Nop53 residues 58–91)]

- Kd [2]: ~20 µM
Binder: HVNNDQLFFVDDGGNEDSQDKNEDTMDVDDEDD (domain or fragment, S. cerevisiae, UniProt P40362 78-110, looked up) [Utp18_(prot) (Utp18 residues 78–110)]
